The results in this text go back to the supplement of paper PMC12042874.

± gives the uncertainty stated by the source.

The data set can be described thus: amyloid nucleation score (Sup35N fusion, yeast selection) (log enrichment); library NNK3; higher = more nucleation; inactive = no reads after selection. The essentials:
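Nucleation score: DiMSum log enrichment of output over input reads, centred on the mode score of non-aggregating sequences. Only sequences with at least 100 input reads were kept. Reads came from Illumina sequencing of plasmid inserts before and after 7 days of growth at 30°C without adenine and uracil, in psi-negative yeast expressing Sup35N fused to peptides of 20 random codons after 24 hours of induction with 100 μM copper sulfate.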

In the case of SILLVFHFKANVCLVFT, the amyloid nucleation score result is “inactive”.
To LALWFRGPLLLLSSLI belongs “inactive”.
For the substance VRALNTAAWLSNTRCLGMDA, the amyloid nucleation score entry is “inactive”.
As for YYNVAMRCRSHHTRMSIFWC, the amyloid nucleation score entry is “inactive”.
For FYFKR, the amyloid nucleation score entry was “inactive”.
CKMRVILKFIKNL showed an amyloid nucleation score of 0.48 ± 0.16.
On to NCSSVPVSALFGEGVRKTPS, for which the amyloid nucleation score result is “inactive”.
As for ASIPGQRYSEPVKPGTCMYV, the figure is 1.3 ± 0.14; as for NTGLNFCRASLSWTLGLYSS, “inactive”; as for PSVWFFSTETFMVRCPADC, 0.549 ± 0.33.
In the case of LDEGPPSAWVFATKTNFCES, the amyloid nucleation score entry was “inactive”.
For the substance MDKYTRTRPQTRGRAVSCYY, the amyloid nucleation score entry is “inactive”.
As for AWVHLPGQESGYYCCFMNEM, the amyloid nucleation score was determined as 1.63 ± 0.12.
Regarding YSLVYAYMESTMYYCLGLRM, the amyloid nucleation score result was “inactive”.
In the case of VGWIHYCQGTYKRMFGITGR, the amyloid nucleation score entry is “inactive”.
In the case of LPHVAVEAVTLAMWVE, the amyloid nucleation score result is “inactive”.
To YRGLGRDSHTHCRNHVLLTL belongs “inactive”.
For the substance KLSWTPRLLNSYSLLEYVQD, the amyloid nucleation score result is “inactive”.
The substance GMRRFHNVRINVVSRWWFLE returned an amyloid nucleation score of 0.545 ± 0.28.
Take EWLGNCRNDCVMWLCYNMAS: the amyloid nucleation score entry is “inactive”.
Take SINSLFAESGLMLTFRMSSE: the amyloid nucleation score entry is “inactive”.
KCMCNLRSMFASCLYTCVVI: the amyloid nucleation score result is “inactive”.
For the substance PAGTICGCRHGRLWNGPSRW, the amyloid nucleation score entry is “inactive”.
As for TSGDMRAVYGLYREIRLVNT, the amyloid nucleation score entry is “inactive”.
As for IYLKYSSYRNSLIILAVD, the amyloid nucleation score entry was “inactive”.
TMVTTNEIT: the amyloid nucleation score was found to be 0.092 ± 0.29.
LNVTLIMNRRLFMGTFHLW: the amyloid nucleation score entry is “inactive”.
LPICGAD: the amyloid nucleation score entry was “inactive”.
As for YTCNSWILDANNLANEPVSK, the amyloid nucleation score entry is “inactive”.
To RERIFRICVFRMTSDKMTAT belongs “inactive”; to MGLLSTFFVEFFKT, “inactive”; to ECATTVGNAFRRSGVQVFAM, “inactive”.
Consider LSYFSLLGFRYSRGVMGYQM, for which the amyloid nucleation score entry was “inactive”.
Take QDVAFAAEYELTKCSVLFSN: the amyloid nucleation score result was “inactive”.
Turning to LFVMVQLCQL, the amyloid nucleation score came out at 0.797 ± 0.13.
As to CVASR, the amyloid nucleation score entry was “inactive”.
As for YRELSTLREEMHIRY, the amyloid nucleation score result was “inactive”.
In the case of NMYSISTLHRKLADPVCSV, the amyloid nucleation score entry is “inactive”.
As for LWVSLFVSDVTRLFCLGFVT, the entry is “inactive”.
In the case of FGTPMVNVCMPS, the amyloid nucleation score result is “inactive”.
As for AFYVVLTNTVYVGWLQE, the entry is “inactive”; as for LTFISLSLGPDSRFSMTKYY, “inactive”; as for EFNNFYFCFFTV, 2.71 ± 0.064.
Turning to GCISVVSL, the amyloid nucleation score entry is “inactive”.
LCKDLDTSCVGSFYIFRQKG: the amyloid nucleation score entry was “inactive”.
To WSIRYVLICIGVSKIVCRPL belongs “inactive”; to MEVDQTYVRIWC, 1.31 ± 0.14.
TTRLNFENVNVTLLNYKSMG registered an amyloid nucleation score of 1.19 ± 0.069.
As to ANYVCKNAVYVMQNNGLVH, the amyloid nucleation score result was “inactive”.
Turning to FIWAREFSVLRSHRRWPTEN, the amyloid nucleation score entry is “inactive”.
LLGVWG yielded an amyloid nucleation score of 0.217 ± 0.53.
IRTIIQKKMWACDHVFGSPA: the amyloid nucleation score result is “inactive”.
For KVLVFGFQCFIL, the amyloid nucleation score came out at 1.56 ± 0.08.
Regarding CFPTTSK, the amyloid nucleation score entry is “inactive”.
To VVDCLFLSEPCYVGFRWVIE belongs “inactive”.
Turning to VAKLKRTWTVWLVIYSRKSW, the amyloid nucleation score result was “inactive”.
As for YIYDSLWW, the amyloid nucleation score result is “inactive”.
On to VMKHHALGLEEWPQYTSYAW, for which the amyloid nucleation score result is “inactive”.
To CLCKLEWHNTYMGYKR belongs 2.63 ± 0.08; to GLLFYYMILLGELLQR, “inactive”.
As for NFGQTGRCYKRLRFC, the entry is “inactive”; as for RIRVSNVCSHQFWLIYGNDT, 2.15 ± 0.057; as for PSYLKTFRDVLMTVSMYFVC, “inactive”.
Turning to NFFRDSGRMCHPKGIGDRWT, the amyloid nucleation score entry was “inactive”.
Regarding SDSGLKKV, the amyloid nucleation score result was “inactive”.
To HICLA belongs “inactive”.
Turning to DFNDSLFLPRIDTPSLVFLQ, the amyloid nucleation score entry was “inactive”.
As for TRTMAVDTVGCSENRDAAGD, the amyloid nucleation score result is “inactive”.
YCTRNTCEIVGCILCGGLLS displayed an amyloid nucleation score of 2.45 ± 0.086.
As for IFLIPYA, the amyloid nucleation score entry is “inactive”.
On to LQFDYLMIYLVQFSVLWVCL, for which the amyloid nucleation score result was “inactive”.
Consider TLVCEDIVYRDLLITSFLYS, for which the amyloid nucleation score came out at 0.589 ± 0.087.
To SKPLFMTNNVTMGTIWPHMG belongs “inactive”.
To FFRFRKCAM belongs “inactive”; to FNTFVPRKYH, “inactive”.
As for TYFTFSREVKMMVHTNCCLL, the figure is 0.594 ± 0.2; as for GVAPYFQCVLIEEERVEGQG, “inactive”; as for TCSDDCFLMKWYEDIRSVVT, “inactive”.
For the substance TESCVDSMVAFHNLPYLFRL, the amyloid nucleation score entry is “inactive”.
FRYAMSYVGGMGSSINALIW: the amyloid nucleation score entry is “inactive”.
For YRLRNSS, the amyloid nucleation score entry is “inactive”.
Turning to LNYEIWNISRFRTFFTGVSA, the amyloid nucleation score was -0.332 ± 0.73.
Take LNYFISLSGRSLPVSCNQIY: the amyloid nucleation score entry was “inactive”.
WNMIFTQPNNQPIVVRDFVD: the amyloid nucleation score entry is “inactive”.
As for HSLHMGRKAMQYEYTQPAGI, the entry is “inactive”; as for HLLEVFKDSCRTRGRMLLWG, “inactive”.
Turning to DTGLAESQGMN, the amyloid nucleation score entry is “inactive”.
In turn, VVCELCGSYYYIHCWDCNAS had an amyloid nucleation score of 2.75 ± 0.069.
GKSTVGMI: the amyloid nucleation score result is “inactive”.
With DMTGGVCHFWSCCVSCNK, the amyloid nucleation score amounted to 2.96 ± 0.072.
Consider TRVTS, for which the amyloid nucleation score result is “inactive”.
Take DLWDTCCLII: the amyloid nucleation score result was “inactive”.
With GLWNDCKRWLRRS, the amyloid nucleation score entry is “inactive”.
As for SLRFCWILGENQSGTCSIKR, the figure is 1.16 ± 0.15; as for MNTACS, “inactive”; as for LSVMNSVRTWYIIDFATFSC, “inactive”.
Regarding GSIDFSSSCECIGDWHHRGY, the amyloid nucleation score entry was “inactive”.
LSRLGWYRFCTIMGCYFWIL: the amyloid nucleation score result is “inactive”.
Regarding FWQSIYDGMGSVIFHHGFTQ, the amyloid nucleation score was 0.434 ± 0.14.
With ALSDDTDTQAANQLHGCTGW, the amyloid nucleation score result was “inactive”.
As to FNVPS, the amyloid nucleation score came out at 0.673 ± 0.42.
Take ENTCYRVGALIAAFTSFKLW: the amyloid nucleation score entry is “inactive”.
Turning to VWGMMFNMCYRELCLAMTLF, the amyloid nucleation score entry is “inactive”.
For the substance IFNQLDLFCDRTLDGLRDAK, the amyloid nucleation score entry is “inactive”.
In the case of GLLMSMRSFFSGQVQNGAVL, the amyloid nucleation score result is “inactive”.
With NVIRGGQGLVGPAIMFRDGV, the amyloid nucleation score result was “inactive”.
Consider SGFDGTPFVLLSSDMFSNIG, for which the amyloid nucleation score result was “inactive”.
To HSRTGLGLHKLRMAVGFCIN belongs “inactive”; to NHSSYG, “inactive”; to PVLEYKVL, “inactive”.
In the case of SYSFEYNHSDKFVSLYYMDI, the amyloid nucleation score entry is “inactive”.
To SCKVVPCYHVDDMVEL belongs “inactive”.
Consider ISCSKLTR, for which the amyloid nucleation score entry was “inactive”.
Regarding SGFFSVAGIGWYTIYFCIYR, the amyloid nucleation score entry is “inactive”.
In the case of IKMGVRYGRNTVWTARCGSG, the amyloid nucleation score turned out to be 0.222 ± 0.6.
The substance DWYIVRMARCG showed an amyloid nucleation score of 0.984 ± 0.12.
As for VVMKGTRMVKVKERGSGKDY, the entry is “inactive”; as for QILYFVDTEVSYMEASWRDS, “inactive”.
For VLGVEECGYWLD, the amyloid nucleation score result was “inactive”.
As to EYNPTYYFYRTFMAFFLKMI, the amyloid nucleation score result is “inactive”.
Consider FASIRSRTRDRVSYVTPSFL, for which the amyloid nucleation score result was “inactive”.
On to SNPGSALDIMGTNQIYPSQH, for which the amyloid nucleation score entry was “inactive”.
As for SPWLSAHRSNTGVRTLSLEV, the entry is “inactive”.
As to FVDMIMKEDKFVLGQNFLRG, the amyloid nucleation score entry was “inactive”.
To VDKLGSYPMPLVLGVVNTYQ belongs “inactive”; to SMHARGDL, “inactive”.
With CVMCG, the amyloid nucleation score entry was “inactive”.
ACFVKY: the amyloid nucleation score entry is “inactive”.
To MVRSRLSASRRSICGPIISA belongs “inactive”; to DTFACCPRWNLCGENTLPYI, 2.33 ± 0.06; to SRRSCYVIAYELV, “inactive”.
